Target: T1, murine FSHR (murine, UniProt P35378 18-692)
T1 construct: whole, on cells; also called mouse FSHR
T1 sequence (looked up): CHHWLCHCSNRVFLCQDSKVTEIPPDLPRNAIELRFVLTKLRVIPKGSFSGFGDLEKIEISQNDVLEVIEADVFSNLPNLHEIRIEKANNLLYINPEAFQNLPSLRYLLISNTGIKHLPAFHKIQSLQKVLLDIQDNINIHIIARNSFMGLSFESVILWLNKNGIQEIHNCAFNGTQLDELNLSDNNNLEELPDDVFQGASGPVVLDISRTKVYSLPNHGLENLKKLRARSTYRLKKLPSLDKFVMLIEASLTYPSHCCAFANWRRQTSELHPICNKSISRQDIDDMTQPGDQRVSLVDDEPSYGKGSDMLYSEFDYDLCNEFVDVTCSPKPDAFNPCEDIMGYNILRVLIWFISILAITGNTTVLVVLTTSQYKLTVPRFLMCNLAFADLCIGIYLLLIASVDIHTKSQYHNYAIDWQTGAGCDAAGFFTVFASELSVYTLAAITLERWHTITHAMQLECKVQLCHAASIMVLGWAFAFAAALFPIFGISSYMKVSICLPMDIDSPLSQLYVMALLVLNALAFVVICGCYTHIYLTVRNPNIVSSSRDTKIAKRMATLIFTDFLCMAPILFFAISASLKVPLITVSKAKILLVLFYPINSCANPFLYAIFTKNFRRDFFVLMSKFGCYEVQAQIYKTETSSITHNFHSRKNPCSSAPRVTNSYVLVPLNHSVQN
Experiment: immunofluorescence, 293T cells transiently transduced with murine FSHR
From the text: The use of 9H11 for staining FSHR in immunocytochemistry through immunofluorescence was validated.

- binding result: binds
B1: 9H11 monoclonal antibody (murine, original) (antibody, mouse IgG2a, kappa, V domains shown)
VH: QVNLKESGPGILQPSQTLNLTCSFSGFSLSTSGMGVGWIRQPSGKGLDWLAHIWWDDDKRYNPALKSRLTISKDASSNQVFLKIASVVTADTATYYCVQINYGNYRFDNWGHGTTLTVSS
VL: not shown
notes: Mouse hybridoma antibody; also called murine monoclonal antibody 9H11; 9H11 antibody

Source: patent US20210340263A1 (WISTAR INSTITUTE, published 2021)
